Our source for the IC50 values is US20240251767A1.

The assay deals with Spike protein of the COVID-19 Spike-ACE2 Binding Assay Kit (Raybiotech) (SARS-CoV2) (UniProt P0DTC2).

As a reminder, the IC50 is the concentration at which inhibition is half-maximal. High values mean weaker potency in that assay, low ones greater potency in that assay. “human SAT Nb-Fc control VH-Ab-8 (HAb8-S) (Fc fusion)” gave an IC50 of 0.079 nM.
